Measurements: publication PMC11883961

Target: T1, MAPRE1 (native MS), Q15691
T1 chain: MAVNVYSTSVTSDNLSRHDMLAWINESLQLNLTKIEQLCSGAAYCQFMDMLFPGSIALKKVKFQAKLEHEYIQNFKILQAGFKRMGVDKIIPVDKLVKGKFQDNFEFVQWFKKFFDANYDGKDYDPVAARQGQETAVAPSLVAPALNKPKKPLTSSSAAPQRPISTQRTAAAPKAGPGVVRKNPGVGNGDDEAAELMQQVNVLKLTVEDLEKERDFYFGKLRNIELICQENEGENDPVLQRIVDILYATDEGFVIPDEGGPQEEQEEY
Test: native MS
Details: remark: other sources report otherwise

B1: MAPRE1 (native MS), Q15691 1-268 (natural protein)
chain: T1 chain
For B1, the stoichiometry N was 2.
